Results from PMC4117528.

Assays:
[1] = SEC; analytical Superdex 200 calibrated with globular proteins; 25 µM protein; 20 mM sodium phosphate, 50 mM NaCl pH 7.3, 1 mM DTT
[2] = molecular target: PhaP from Azotobacter sp. FA8 (Azotobacter sp. FA8); experiment: SEC-MALS; 90° static light scattering (PD2010) with differential refractometer in tandem with analytical Superdex 200; 25 µM protein; 20 mM sodium phosphate pH 7.4, 150 mM NaCl, 1 mM DTT; average molecular weight of the oligomer

stoichiometry N [2] | Substance | apparent number of monomers (SEC, globular calibration) [1]
 | PhaP from Azotobacter sp. FA8 | This molecular weight corresponds to 9 monomers
4 | PhaP from Azotobacter sp. FA8 (natural protein) | 
